In paper PMC8980021:

How the values were obtained:
[1] = biological target: ALPN-202 (davoceticept), variant CD80 IgV domain Fc fusion (human) (UniProt P33681); assay: SPR; Biacore 3000, CM5 chip with goat anti-human IgG capture antibody; ALPN-202 (120 RU) or WT CD80 ECD-Fc (160 RU) captured; monomeric human CD28, CTLA-4, PD-L1 as analytes; 240 s association, 600 s dissociation, 30 uL/min; global 1:1 fit; for the weak interactions a minimal KD with theoretical Rmax fixed
[2] = biological target: wild type human CD80 extracellular domain Fc fusion (WT CD80 ECD-Fc) (human) (UniProt P33681); assay: as above

Kd [1] [µM]	Kd [2] [µM]	Substance
0.0099	> 2.6	recombinant monomeric human CD28 (from UniProt P10747 19-152) (receptor)
	> 37	recombinant monomeric human PD-L1 (from UniProt Q9NZQ7 19-238) (ligand)
